Assay results from patent US20210369812A1, “OSTEOINDUCTIVE PEPTIDES, COMPOSITIONS, IMPLANTS, AND METHODS OF USE” (The Board of Regents of the University of Oklahoma, priority 2018, published 2021).
Entries after “also recorded” stand apart in the source; their conditions may differ.

Key:
BMPR2 = target: T1, BMPR2 (Homo sapiens, UniProt Q13873); assay: Biopanning of Ph.D.-12 phage library on immobilized BMPR2-Fc; assay type: binding; conditions: peptide displayed on p3 of M13 phage; 3 rounds of panning
T1 construct: purchased G&P Biosciences
T1 sequence (Q13873 27-150 limits assumed): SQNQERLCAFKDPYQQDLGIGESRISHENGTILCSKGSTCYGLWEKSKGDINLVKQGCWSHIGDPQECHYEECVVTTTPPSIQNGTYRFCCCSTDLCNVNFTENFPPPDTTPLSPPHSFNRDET
Procedure: (§1) The Ph.D.™-12 phage library was diluted in tris-buffered saline mixed with Tween-20 (TBS+0.1% v/v Tween-20 and abbreviated TBST) for a final concentration of 2×10^11 phage in 1 mL of TBST. The diluted library was then pipetted onto one of the wells of a 12-well poly-L-lysine plate followed by rocking the plate gently for 60 minutes at room temperature. […] This supernatant served as the starting phage library for subsequent binding selections. The phages which stuck to the plate were discarded.
(§2) This procedure is only applicable if the charge of the desired protein to be immobilized is negative, determined by checking the pI value of the protein. […]. This procedure was written for 12-well plates coated in poly-L-lysine (positively charged). Separate solutions of BMPR1A-Fc and BMPR2-Fc were prepared at 80 μg/ml in Tris-buffered saline (pH 7.5). In separate wells and on separate poly-L-lysine coated 12-well plates, 0.3 ml of each solution of receptor was added. The solutions of BMPR1A-Fc and BMPR2-Fc were swirled around the plate surface until the entire surface was wet. The plates were then incubated overnight at 4° C. with gentle agitation in a humidified container (a sealed plastic box with damp paper towels). Each individual receptor was now immobilized.
(§3) The following selection procedure is based off of the direct coating procedure outlined in the Ph.D.™-12 Phage Display Libraries instructional manual (New England Biolabs) with some alterations. This procedure was carried out after immobilizing the targets BMPR1A-Fc and BMPR2-Fc in a 12-well poly-L-lysine coated plate. A stock solution of tetracycline was prepared (20 mg/ml in 1:1 ethanol:water). The coating solution containing the target receptors was poured off followed by firmly slapping the plates face down on a clean paper towel. Each well was then filled with blocking buffer (0.1 M NaHCO3 (pH 8.6), 5 mg/mL BSA, 0.02% NaN3. Filter sterilize, store at 4° C.) and incubated for 1 hour at 4° C. The blocking solution was then poured off followed by firmly slapping the plates down against a clean paper towel. Each plate was washed rapidly 6 times with Tris-buffered saline mixed with Tween-20 (TBS+0.1% v/v Tween-20). The plate was slapped against a clean paper towel each time. 1 ml of the phage library created from the negative selection process was then pipetted onto each of the target coated wells. The plates were then rocked gently at room temperature for 60 min. The non-binding phages were then discarded by pouring off the supernatant and slapping the plate face-down on a clean paper towel. The plate was then washed 10 times with TBST followed by slapping the plate face-down on a clean paper towel each time (a clean section of paper towel was used each time to prevent cross-contamination). The bound phages were then eluted by incubating with a nonspecific disruption buffer (0.2 M Glycine-HCl (pH 2.2), 1 mg/ml bovine serum albumin (BSA) for 15 minutes. The eluate (immersed in the disruption buffer) was then pipetted into a microcentrifuge tube followed by neutralization with 150 μl of 1 M Tris-HCl (pH 9.1). A small portion (˜1 μl) of this eluate could be titered and sequenced if desired. The rest of the eluate was amplified (see amplification of phage library section). Once amplified, the eluate was also titered. Determine the concentration of amplified phages by counting the blue plaques in titering as described. Dilute the amplified library to contain 2×10^11 phages in 1 mL of TBS (as little as 10^9 plaque forming units per ml can be used if there is not enough). A second poly-L-lysine 12-well plate was then coated with the target receptors to allow for a second round of biopanning carried out using the same steps except that the Tween-20 concentration in the wash steps was raised to 0.5% (v/v). The eluate from the second round was then amplified, titered and used in an additional 3rd round of panning on newly receptor coated plates. […]

BMPR1A [1] = target: T2, BMPR1A (Homo sapiens, UniProt P36894); assay: Biopanning of Ph.D.-12 phage library on immobilized BMPR1A-Fc; assay type: binding; conditions: peptide displayed on p3 of M13 phage; 3 rounds of panning
T2 construct: purchased G&P Biosciences
Procedure: as §1, §2, §3

BMPR1A [2] = target: T2, BMPR1A; assay: Enzyme-linked immune sorbent assay for receptor binding (BMPR1A); conditions: peptide on p3 of M13 phage; absorbance 450 nm; n=4; vs wild type phage
Description: Groups having the same lowercase letter assigned (above the bar) were not statistically different from each other. Groups having different letters assigned (above the bar) were statistically different from each other. […] The primary antibody was mouse anti-g3p (p8) IgG. The secondary antibody was anti-mouse IgG conjugated with horseradish peroxidase. The substrate, 3,3′,5,5′-Tetramethylbenzidine was detected at 450 nm after stopping the reaction with 1 M HCl.
Blocking buffer (0.1 M NaHCO3 (pH 8.6), 5 mg/ml BSA. Filter sterilized, stored at 4° C.) was prepared. TBS (50 mM Tris-HCl (pH 7.5), 150 mM NaCl, autoclaved, stored at room temperature) was prepared. Separate solutions of the target receptors were then made. For BMPR1A, a 10 μg/ml stock solution was made. For BMPR2, a 10 μg/ml solution was also made. Separate wells with n=4 for each different peptide bearing phage group were then coated with one of the receptors. The coating was done by adding 100 μl of the target solution to wells of a 96-well plate followed by swirling until the surface was completely wet. The plates were then allowed to incubate overnight at 4° C. with gentle agitation in a humidified container (a plastic box lined with damp paper towels). Any excess target solution was then removed, and the plate was slapped face-down on a clean paper towel. The wells of the plate were then blocked with 200 μl of blocking buffer for 1 hour at room temperature. […] The blocking buffer was then removed from each plate followed by 5 washes with 200 μl of TBST. Each time the plate was slapped against a clean section of paper towel face-down. […] After a brief pilot test, it should be noted that using 10^10 phage/ml was determined to work best, but other concentrations of virus also worked consistently. […] Then, […] of freshly prepared 3,3′,5,5′-Tetramethylbenzidine (TMB) was added to each well and the absorbance at 370 nm and 652 nm was monitored for 1 hour using an ELISA plate reader. […] The absorbance at 450 nm for each well was then measured.

T2 sequence (P36894 24-152 limits assumed): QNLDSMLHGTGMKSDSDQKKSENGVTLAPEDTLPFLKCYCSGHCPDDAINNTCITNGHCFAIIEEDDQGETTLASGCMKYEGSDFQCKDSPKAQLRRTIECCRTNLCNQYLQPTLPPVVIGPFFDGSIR

“SGTQDSMVGWNK (Completely synthesized in the lab - Ph.D.-12 Phage Display Peptide Library Kit (New England Biolabs))” was tested, and the “Binding to BMPR2 found by biopanning (frequency among sequenced plaques)” value (BMPR2) was “showed up as a result of biopanning on both BMPR1A alone and BMPR2 alone; also recorded: discovered to bind”, the “Binding to BMPR1A found by biopanning (frequency among sequenced plaques)” value (BMPR1A [1]) was “showed up as a result of biopanning on both BMPR1A alone and BMPR2 alone; also recorded: discovered to bind” and the “Relative binding strength in ELISA to BMPR1A” value (BMPR1A [2]) was “best binders”.

For “VHVPLHRGAVSA (Completely synthesized in the lab - Ph.D.-12 Phage Display Peptide Library Kit (New England Biolabs))”, the “Binding to BMPR2 found by biopanning (frequency among sequenced plaques)” value (BMPR2) was “discovered to bind”, the “Binding to BMPR1A found by biopanning (frequency among sequenced plaques)” value (BMPR1A [1]) was “discovered to bind” and the “Relative binding strength in ELISA to BMPR1A” value (BMPR1A [2]) was “best binders”.
